± gives the half width of the 95% confidence interval.
Assays:
[1] = folding stability dG unfold (combined trypsin and chymotrypsin); higher = more stable
In short: (§1)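 Mini-proteins designed to be under 80 residues and free of cysteine were carried in a PA-tagged cDNA display construct and digested with trypsin and with chymotrypsin. Each protease was applied at 11 threefold-diluted concentrations, alongside a no-protease condition, before sequencing. K50 came from Bayesian fitting of the sequencing counts, and unfolding free energy was obtained by comparing it with a sequence-predicted unfolded-state K50 and a shared folded-state K50, for each protease separately or for both together. Designs were retained only if their AlphaFold2 dimer inter-PAE exceeded 15.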

[2] = folding stability dG unfold from trypsin proteolysis; higher = more stable
In short: as §1

[3] = folding stability dG unfold from chymotrypsin proteolysis; higher = more stable
In short: as §1

Sequence	folding stability dG unfold [1]	folding stability dG unfold [2]	folding stability dG unfold [3]
SAGGSAKPDLVRTGPLLLPTAVVLPSVHFADPDVSVSLFRTPNGPPYLALAFIDPETGEPHIVLFPSAGGSA [r15_84_TrMRF]	6.02 ± 0.377 kJ/mol	3.91 ± 0.151 kJ/mol	7.14 ± 0.293 kJ/mol
SAGGPGMEPIGEIKLDDGVTIEVWRPPNGWYRAKVEFPDNGKQINYPFNPNMSFEQAKDQIKELARKLSAGG [r13_624_TrROS]	6.34 ± 1.51 kJ/mol	2.17 ± 0.544 kJ/mol	7.8 ± 0.628 kJ/mol
SATTTLNLSSVEELKELVEKLIAEGNPEATLTVTLYPPSGESSTKSFSSVEEVIEELKKGPASVTITVTSSA [r9_589_JUSTAS]	10.7 ± 0.205 kJ/mol	9.13 ± 0.188 kJ/mol	11.3 ± 0.092 kJ/mol
SAGGSAGGMIEVESFPEIGYILVKAKSEKPEEIAKEVLEKFNVKEAVVFEDPEKPYVYILAKIDSAGGSAGG [r6_661_TrMRF]	4.71 ± 0.879 kJ/mol	4.06 ± 0.368 kJ/mol	5.28 ± 0.879 kJ/mol
SAGGRGVGRPGSRLLLVAEADLEPDEVSVEELAERIREAFPDVRVVDLRVEVGGEKARLFALVELDVSAGGS [r8_202_TrMRF]	5.89 ± 0.385 kJ/mol	3.84 ± 0.322 kJ/mol	6.87 ± 0.28 kJ/mol
SAGGSAGGSAGGGKSITKVYTLPNGGKAVAVYNPETGKVEVYFFKPNGKLLEKKTFKAKSAGGSAGGSAGGS [r10_1044_TrMRF]	10.5 ± 0.46 kJ/mol	9.12 ± 0.285 kJ/mol	11.9 ± 0.293 kJ/mol
SAGGMIRIERDGDRLTIQIPMPPGQPPTPEQVEEFARDILKKLGPDVRVKDVSHDPNGGFTIELKVPSAGGS [r8_103_TrROS]	7.59 ± 0.289 kJ/mol	6.17 ± 0.117 kJ/mol	9 ± 0.213 kJ/mol
SAGGSAGGSGITPAAKKIAAEIEKKYPNEKIKVEEELLPNGYLKIKVTTDNGKKYEIIIKVGGSAGGSAGGS [r20_210_TrMRF]	13.5 ± 0.322 kJ/mol	10.5 ± 0.502 kJ/mol	14.7 ± 0.222 kJ/mol
SAGGSAGGSAKEVIIEIKVPPNMTEDEIKELLKKKFKGKKVEIKIEKKKNKNGTLIYKVEVKSAGGSAGGSA [r18_360_TrROS_Hall]	11.4 ± 1.42 kJ/mol	10.9 ± 0.628 kJ/mol	13.1 ± 0.502 kJ/mol
SAGMEIKYTITVSLSSGQTLGTKTITDPGKSIEEIVKEFAKIPGLTLITVTVTNPDGTPTTVTIPVNPSAGG [r19_269_JUSTAS]	11.7 ± 0.213 kJ/mol	9.37 ± 0.247 kJ/mol	12.85 ± 0.092 kJ/mol
SAGGKKMTFKVDEIQTHGNQIMIPIRFPDGHPFPMQIDDPEQLDNLKPGEEIKIEFRPDGSFRIEWRSAGGS [r16_2_TrROS]	6.47 ± 0.711 kJ/mol	6.07 ± 0.276 kJ/mol	6.89 ± 0.753 kJ/mol
SAWYIIKIEIYNPGQNEPIASHTFMVPEEDLDAFKEKIADQFGMNPGWQIKVEIQPIPPVRDKDGEWKWSAG [r14_297_TrROS]	8 ± 0.36 kJ/mol	6.45 ± 0.151 kJ/mol	8.92 ± 0.322 kJ/mol
SAGGSAGGSAGGMPIPIIVIPTPPNGNFTPEQIKEVAEKLNDPVVLTEESDNSRVILVGSAGGSAGGSAGGS [r10_642_TrMRF]	2.17 ± 0.669 kJ/mol	3.88 ± 0.121 kJ/mol	-0.564 ± 0.335 kJ/mol
SVDPAKEKVVLRFTVTFPVPPELGPITADELAALVREILEAFGYEIVSVTVTVEGDRVTVTVEAVFDKRGSA [r9_1134_TrMRF]	21 ± 0.381 kJ/mol	15.7 ± 0.46 kJ/mol	21.8 ± 0.36 kJ/mol
SAGDNLKIDVEVEPAKVILGEFDENGKLIKPIEKDVLIVKVTVTFSNGKKLEIRATFFDGKLISVSSGSAGG [r19_44_TrMRF]	21.2 ± 0.795 kJ/mol	14.9 ± 0.669 kJ/mol	22 ± 0.36 kJ/mol
KKYKVPVKEALKVAKKLIEKGYEKVKITAYLPNGEKYEIEDIKEFEEELKKKFPGIKPENLTVEIEVIPKES [r1_325_TrMRF]	17.4 ± 1.55 kJ/mol	13.7 ± 0.628 kJ/mol	18.8 ± 1.09 kJ/mol
SAGGSAKELIIKIKIKVKVNGKTYEIEIEIKAESIEEAIEAIKKKLEEEGLEIEIVEIEIIPKEELSAGGSA [r15_165_TrROS_Hall]	12.5 ± 0.418 kJ/mol	12.6 ± 0.36 kJ/mol	12.9 ± 0.339 kJ/mol
SAGGSAGGSAGGMTPEEKIEALIKATPPLTVKTSGPGVSYEVEDLEKLKKLNVTISSVLGSAGGSAGGSAGG [r7_504_JUSTAS]	-2.67 ± 0.92 kJ/mol	-5.46 ± 2.8 kJ/mol	-2.86 ± 1 kJ/mol
SAGGSAGGEIPPNIKKIETLPDDGWLMVKVDSPKDIREFFEDHGWEIKDVEEEGNTIHIPIKPKSAGGSAGG [r6_381_TrROS]	3.31 ± 1.05 kJ/mol	2.71 ± 0.301 kJ/mol	3.73 ± 1 kJ/mol
SAGGSAPKPDWIVRIEITVKFPGKTKKIDIVIDSPEALNQIINELKDEGFKDVEPKIEWVPLEEMKSAGGSA [r15_1015_TrROS]	3.83 ± 1.09 kJ/mol	1.24 ± 0.372 kJ/mol	5.06 ± 0.711 kJ/mol
SAGGSAGGSAGGMTIVLNIPKEELTEEEIKKLKESLPSDNPVKIIVKPKPPRKFYPKSTISAGGSAGGSAGG [r7_979_JUSTAS]	3.87 ± 0.272 kJ/mol	2.53 ± 0.1 kJ/mol	4.69 ± 0.201 kJ/mol

Sequence	folding stability dG unfold [1]	folding stability dG unfold [2]	folding stability dG unfold [3]
SAGGSAGGSAGGMSITFTAPDGSKITATIDPDGNVLVEVHLGDKPYYVKGPVETLLKNAPSAGGSAGGSAGG [r7_178_TrMRF]	3.01 ± 0.293 kJ/mol	1.36 ± 0.113 kJ/mol	3.78 ± 0.418 kJ/mol
SAGGSAGGSAGKEKTITVLLEVDGYLVVAEVKLNEDGSLEITSVKVIKLPKPKPSPEALKSAGGSAGGSAGG [r11_843_TrROS_Hall]	3.79 ± 0.879 kJ/mol	4.48 ± 0.201 kJ/mol	2.16 ± 0.138 kJ/mol
SAGMVVTINFSIPETGETITITIPVPEDDPVVKALGAPSAEDIAAYLAPQLKEKGINVQNPTVTVTEPSSAG [r5_722_JUSTAS]	2.95 ± 0.213 kJ/mol	1 ± 0.18 kJ/mol	3.88 ± 0.222 kJ/mol
SAGGSAGGSAGMSTTPVAYKFTFTLPGGETLEREGTDVAALKEALKAEYGAVEITVTPVSSAGGSAGGSAGG [r17_508_JUSTAS]	9.06 ± 0.418 kJ/mol	9.19 ± 0.176 kJ/mol	8.67 ± 0.502 kJ/mol
SANPIPLEKANITVSYTSPDGLVVTANITSVTYDPSTGKYTFTFTGTLTDPSTGTTTPVSFTVSTVTLSSAG [r14_825_JUSTAS]	15.9 ± 0.544 kJ/mol	11.2 ± 0.418 kJ/mol	17.8 ± 0.414 kJ/mol
SAGGSMPVPYESKNVSPSGVEVSSTTYPYDFQIEKFPGSNPVITRTDPKTGEVTPIGTEEELEKLLKSAGGS [r8_232_JUSTAS]	0.411 ± 0.544 kJ/mol	-0.72 ± 0.197 kJ/mol	0.763 ± 0.879 kJ/mol
SAGGSAGGTSVADELEEEFKAKGYPAEVTVTKLPDDTTLVTVTVTDPKTGKSTTTTVTVSPAEASAGGSAGG [r6_692_JUSTAS]	3.6 ± 0.669 kJ/mol	4.26 ± 0.318 kJ/mol	4.21 ± 0.502 kJ/mol
SAGGSAGGSKTITLSAEELEKMSPEERKKLAELAEKLGAKIEVKDGKVTITIEGLTPEELKALSAGGSAGGS [r12_945_TrROS_Hall]	12.8 ± 1.05 kJ/mol	16 ± 1.05 kJ/mol	9.76 ± 0.502 kJ/mol
SAGGSAGGSMADITITVTDPATGATRTFPHSVSLEEILAEHPGPVTVTIETPTSTTTLQVPRESAGGSAGGS [r12_1056_JUSTAS]	2.27 ± 0.234 kJ/mol	3.7 ± 0.126 kJ/mol	0.306 ± 0.351 kJ/mol
SAGGSAGGSAGMAEKLPSLSLFYLPETGDLVLIREETYVDPNDPDKSIVKQEIYVLPPEYSAGGSAGGSAGG [r17_241_TrMRF]	6.32 ± 0.402 kJ/mol	4.12 ± 0.213 kJ/mol	7.28 ± 0.544 kJ/mol
SIYIKIPIDEIKPEWNKNGMITLEIKYPNGKTIKFEFPPGFQIDNIEVIKPGWIMFEFEIVPPADPEDAKSA [r9_501_TrROS]	9.19 ± 0.669 kJ/mol	7.37 ± 0.502 kJ/mol	12.8 ± 0.343 kJ/mol
SAGGSLLEQEAAARGYQVEIERIPGTGVYLVTLTPPDGSRVVVTVEVVKTPKTGLVELRTLETRELPPSAGG [r13_936_JUSTAS]	6.38 ± 0.218 kJ/mol	5.19 ± 0.0962 kJ/mol	7.143 ± 0.046 kJ/mol
SAGGMKPGESSTVPPVVERTTSPDSLGNPRYTVTRVTEITVTYFPDSINVTVTTETTVVSTATPGLLSAGGS [r8_70_JUSTAS]	7.43 ± 0.293 kJ/mol	9.22 ± 0.247 kJ/mol	4.82 ± 0.13 kJ/mol
SMSREELREYARAHPDRPLALILPGKKTLLLFDPATGAEREEDITSVEEAKERLAAQPVAVVEVVSAELLSA [r9_775_JUSTAS]	1.23 ± 0.46 kJ/mol	-1.84 ± 1.55 kJ/mol	2.09 ± 0.356 kJ/mol
SAGGSAKEWVWVISIKYRYPNGEPLAPIPIMIPPDDPEIDIDEIADEIARKHGLDEIEVNIHPIPVSAGGSA [r15_333_TrROS]	7.94 ± 0.586 kJ/mol	6.66 ± 0.218 kJ/mol	8.48 ± 0.502 kJ/mol
SMVEKLPDGTTVIKGELPLDVSIEDVLAKLPDLKLASRTSETDPATGKRYYTFIVKPDGTVDVTSEPKLLSA [r9_238_JUSTAS]	4 ± 0.188 kJ/mol	2.7 ± 0.113 kJ/mol	5.07 ± 0.381 kJ/mol
SAGGIKIMIPPGMPEEEARELARMIASMLPDNGHNIDDVKVRPVKPMPPPDGEPHRMYEFEIKLEPPSAGGS [r16_266_TrROS]	3.09 ± 0.46 kJ/mol	4.24 ± 0.146 kJ/mol	1.46 ± 0.418 kJ/mol
SAMTLTLEIELDGVRVRLEAELELVLNEDGSLELKLKLKIEVEPLPPPKEVEVEEEEEEVEEVEFLPEESAG [r14_341_TrROS_Hall]	18.6 ± 1.09 kJ/mol	16 ± 1.3 kJ/mol	19.3 ± 1.17 kJ/mol
SAGGKKPERVKITIMIPFDDPDKLRNFLRNHGFKVDEVEPNKEGMLAVEFEFPGYEIEIIIMDPGAMSAGGS [r16_170_TrROS]	14 ± 0.586 kJ/mol	11.9 ± 0.669 kJ/mol	15.7 ± 0.364 kJ/mol
SAGGSAGGSAGKIVIVVDEDGNYTLKVNGKTYVFKTPEEAKAAAEELKKAGIEIEIVEVPSAGGSAGGSAGG [r17_35_TrROS_Hall]	20.3 ± 0.711 kJ/mol	15.1 ± 0.879 kJ/mol	20.8 ± 0.669 kJ/mol
SAEVIEKTLTETVIGDTVVTPSVVEFPDGSVVEKVTTVSPDGTVTVTTYYFPPDGVRTFLSTTTVPLDLSAG [r14_680_JUSTAS]	3.93 ± 0.293 kJ/mol	2.45 ± 0.126 kJ/mol	4.87 ± 0.293 kJ/mol

Reference: the supplement of paper PMC12764529
